How the values were obtained:
[1] = molecular target: WT MCL-1 fusion protein (N-terminal His6-tag fused to amino acids Glu173-Arg329, containing the BH3, BH1 and BH2 domains) (human) (UniProt Q07820); test: differential scanning fluorimetry (thermal shift assay); purified MCL-1 proteins (10 uM) with or without the indicated concentrations of ligand, Sypro-Orange, thermal ramping 0.3 °C per min between 25 and 94 °C, final DMSO 4% v/v; ΔTm against buffer without peptide
[2] = molecular target: T1, WT MCL-1 fusion protein (N-terminal His6-tag fused to amino acids Glu173-Arg329, containing the BH3, BH1 and … (human, UniProt Q07820 173-329)); test: as above; details: both partners purified
T1 construct: human MCL-1, amino acids E173-R329 (BH3, BH1 and BH2 domains); the results once say 172-329; Cloned into pOPIN F; also called MCL-1 (E173-R329); MCL-1 protein (173-329); source: E. coli BL21 (DE3) pLysS, purified (Ni-NTA IMAC, Superdex 200 SEC)
T1 sequence (Q07820 173-329): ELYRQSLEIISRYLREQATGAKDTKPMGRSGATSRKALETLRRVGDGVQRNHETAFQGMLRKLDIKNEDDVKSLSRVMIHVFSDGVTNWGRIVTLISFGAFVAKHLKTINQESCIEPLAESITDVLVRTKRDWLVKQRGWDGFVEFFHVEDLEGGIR

Chain of WT MCL-1 fusion protein (N-terminal His6-tag fused to amino acids Glu173-Arg329, containing the BH3, BH1 and BH2 domains) (human) (Q07820 173-329): as above

binding result [2] | Molecule | also measured
binds | AELPPEFAAQLRKIGDKVYC (synthetic BH3 peptide of NOXA; source: synthetic peptide (New England Peptide or GenScript)) [NOXA peptide] | 
binds | EQWAREIGAQLRRMADDLNA (synthetic BH3 peptide of PUMA; source: synthetic peptide (New England Peptide or GenScript)) [PUMA peptide] | 

More lines, now with the values behind:

Molecule | binding result [2] | also measured
MCL-1 SAHB (stabilised alpha-helix of BCL-2 domains, designed to mimic the BH3 binding helix of MCL-1) (peptide) |  | thermal shift (ΔTm) at 10 uM [1]: 4 °C
RPEIWMTQGLRRLGDEINAYYAR (MCL-1 specific synthetic BH3 peptide; source: synthetic peptide (New England Peptide or GenScript)) [MS-1 (MCL-1 specific synthetic peptide)] |  | temperature shift (ΔTm) at equimolar peptide and MCL-1 [2]: ~10 °C

— article PMC5386385, “DRP-1 is required for BH3 mimetic-mediated mitochondrial fragmentation and apoptosis” (Cell Death & Disease, 2017)
